Test results taken from patent US20110166081A1 (UNIVERSITY OF IOWA RESEARCH FOUNDATION, published 2011).

Target: T1, mouse integrin alpha7beta1 from digitonin-solubilized skeletal muscle (mouse, UniProt Q61738 34-1135; P09055 21-801, limits assumed)
T1 construct: also called integrin α7β1; alpha7beta1 integrin
Assay: WGA lectin affinity chromatography and sucrose gradient fractionation of digitonin-solubilized muscle, immunoblot
Description: Characterization of skeletal muscle dystroglycan and integrin α7 complexes. Sucrose gradient fractionation of the DGC and the integrin α7 complex from wild-type (A, C), DG-deficient (B) and integrin α7-null (D) skeletal muscle solubilized with digitonin. Glycoprotein preparations enriched by WGA-chromatography were fractionated by sucrose gradient centrifugation. Equal volumes of fractions were loaded on an SDS-PAGE gel. The blot generated from this was probed with antibodies against: integrin α7 (α7), integrin β1(β1), α-DG (α-DG), α-sarcoglycan (α-SG), β-sarcoglycan (β-SG) and γ-sarcoglycan (γ-SG).
Lectin affinity chromatography and sucrose gradient fractionation. Total muscle homogenates in TBS (50 mM Tris-Cl pH 7.4, 150 mM NaCl) were solubilized with 1% digitonin. After centrifugation at 140,000×g for 37 min, solubilized proteins in the supernatant were mixed with wheat germ agglutinin (WGA)-agarose beads (Vector Laboratories) and rotated end-over-end at 4° C. for 2 hours. WGA-bound proteins were eluted with TBS containing 0.3 M N-acetyl-D-glucosamine and 0.1% digitonin. The eluant was applied to a 5-30% sucrose gradient and centrifuged at 215,000×g for 90 min. Fractions (1 ml) were collected from the top of the gradient and analyzed by SDS-PAGE.

T1 sequence (Q61738 other isoform, or with tags, fused parts or gaps limits assumed, chain 1 of 2): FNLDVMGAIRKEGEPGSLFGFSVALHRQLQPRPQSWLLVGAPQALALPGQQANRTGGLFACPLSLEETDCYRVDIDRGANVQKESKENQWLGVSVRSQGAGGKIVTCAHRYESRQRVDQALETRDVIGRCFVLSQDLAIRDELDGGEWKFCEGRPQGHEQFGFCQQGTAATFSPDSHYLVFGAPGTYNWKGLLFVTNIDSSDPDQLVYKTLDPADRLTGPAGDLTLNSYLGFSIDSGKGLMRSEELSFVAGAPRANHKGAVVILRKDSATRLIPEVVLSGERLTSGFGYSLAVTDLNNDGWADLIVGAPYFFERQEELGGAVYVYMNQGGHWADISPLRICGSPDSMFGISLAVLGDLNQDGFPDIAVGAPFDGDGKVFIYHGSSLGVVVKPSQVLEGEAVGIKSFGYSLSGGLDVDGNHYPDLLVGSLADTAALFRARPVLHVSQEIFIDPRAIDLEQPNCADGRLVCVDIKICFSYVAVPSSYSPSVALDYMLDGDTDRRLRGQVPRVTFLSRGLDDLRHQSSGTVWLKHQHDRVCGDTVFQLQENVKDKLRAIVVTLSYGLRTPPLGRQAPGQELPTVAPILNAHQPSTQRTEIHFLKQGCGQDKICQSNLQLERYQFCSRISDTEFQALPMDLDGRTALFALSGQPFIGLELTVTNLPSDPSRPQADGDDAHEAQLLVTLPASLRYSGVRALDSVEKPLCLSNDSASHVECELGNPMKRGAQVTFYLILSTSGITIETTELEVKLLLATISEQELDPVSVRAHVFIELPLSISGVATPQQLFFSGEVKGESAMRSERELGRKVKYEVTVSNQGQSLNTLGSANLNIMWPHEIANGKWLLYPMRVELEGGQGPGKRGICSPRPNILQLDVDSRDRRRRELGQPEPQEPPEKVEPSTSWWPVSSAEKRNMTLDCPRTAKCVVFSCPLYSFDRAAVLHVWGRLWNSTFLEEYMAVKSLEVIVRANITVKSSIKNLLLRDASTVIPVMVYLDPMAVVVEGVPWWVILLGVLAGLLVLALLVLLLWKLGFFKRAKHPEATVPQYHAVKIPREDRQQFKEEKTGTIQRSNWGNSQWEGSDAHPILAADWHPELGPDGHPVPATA
T1 sequence (P09055 other isoform, or with tags, fused parts or gaps limits assumed, chain 2 of 2): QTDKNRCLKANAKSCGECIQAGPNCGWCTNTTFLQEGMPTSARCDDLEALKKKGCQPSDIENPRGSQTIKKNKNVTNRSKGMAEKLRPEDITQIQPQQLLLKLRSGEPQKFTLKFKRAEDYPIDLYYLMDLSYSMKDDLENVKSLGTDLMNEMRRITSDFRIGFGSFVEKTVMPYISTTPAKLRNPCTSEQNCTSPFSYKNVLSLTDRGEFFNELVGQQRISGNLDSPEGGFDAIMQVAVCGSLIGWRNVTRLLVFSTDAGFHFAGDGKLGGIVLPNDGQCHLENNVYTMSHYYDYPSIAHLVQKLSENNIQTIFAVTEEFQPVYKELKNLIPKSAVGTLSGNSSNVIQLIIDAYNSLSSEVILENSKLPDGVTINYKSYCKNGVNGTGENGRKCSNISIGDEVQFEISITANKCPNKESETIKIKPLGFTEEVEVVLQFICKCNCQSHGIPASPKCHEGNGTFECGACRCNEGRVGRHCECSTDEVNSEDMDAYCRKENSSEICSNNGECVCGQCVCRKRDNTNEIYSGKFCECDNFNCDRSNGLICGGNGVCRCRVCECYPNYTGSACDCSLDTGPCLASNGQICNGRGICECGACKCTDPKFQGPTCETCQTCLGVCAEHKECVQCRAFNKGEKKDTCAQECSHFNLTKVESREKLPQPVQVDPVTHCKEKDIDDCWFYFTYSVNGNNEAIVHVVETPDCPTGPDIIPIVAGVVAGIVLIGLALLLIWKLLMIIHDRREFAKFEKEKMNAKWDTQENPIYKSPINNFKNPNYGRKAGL

B1: mouse dystroglycan from digitonin-solubilized skeletal muscle (receptor)
chain 1: HWPSEPSEAVRDWKNQLEASMHSVLSDFQEAVPTVVGIPDGTAVVGRSFRVSIPTDLIASSGEIIKVSAAGKEALPSWLHWDPHSHILEGLPLDTDKGVHYISVSAARLGANGSHVPQTSSVFSIEVYPEDHNEPQSVRAASSDPGEVVPSACAADEPVTVLTVILDADLTKMTPKQRIDLLNRMQSFSEVELHNMKLVPVVNNRLFDMSAFMAGPGNAKKVVENGALLSWKLGCSLNQNSVPDIRGVETPAREGAMSAQLGYPVVGWHIANKKPTLPKRLRRQIHATPTPVTAIGPPTTAIQEPPSRIVPTPTSPAIAPPTETMAPPVRDPVPGKPTVTIRTRGAIIQTPTLGPIQPTRVSEAGTTVPGQIRPTLTIPGYVEPTAVITPPTTTTKKPRVSTPKPATPSTDSSTTTTRRPTKKPRTPRPVPRVTTKAPITRLETASPPTRIRTTTSGVPRGGEPNQRPELKNHIDRVDAWVGTYFEVKIPSDTFYDNEDTTTDKLKLTLKLREQQLVGEKSWVQFNSNSQLMYGLPDSSHVGKHEYFMHATDKGGLSAVDAFEIHVHKRPQGDKAPARFKARLAGDPAPVVNDIHKKIALVKKLAFAFGDRNCSSITLQNITRG
chain 2: SIVVEWTNNTLPLEPCPKEQIIGLSRRIADENGKPRPAFSNALEPDFKALSIAVTGSGSCRHLQFIPVAPPSPGSSAAPATEVPDRDPEKSSEDDVYLHTVIPAVVVAAILLIAGIIAMICYRKKRKGKLTLEDQATFIKKGVPIIFADELDDSKPPPSSSMPLILQEEKAPLPPPEYPNQSMPETTPLNQDTVGEYTPLRDEDPNAPPYQPPPPFTAPMEGKGSRPKNMTPYRSPPPYVPP
notes: Native protein, WGA-enriched, within the dystrophin-glycoprotein complex; also called DG; DGC
- binding result: no binding
